Data as given in the supplement of paper PMC9112550, “Optimization of the antimicrobial peptide Bac7 by deep mutational scanning” (BMC Biology, 2022).

System: Escherichia coli TOP10
Test: shrunken log2 fold change of peptide-encoding DNA abundance (4.5 h post-induction vs induction); higher = less antimicrobial activity (less host growth inhibition)
Settings: time post-induction: 4.5 h; library: site-saturation at positions 5, 18, 19, 20
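Also: peptides expressed intracellularly from a pBAD plasmid library in pooled LB shake-flask culture, induced with 0.3% L-arabinose, DNA abundance read by NGS, three biological replicates, DESeq2 with apeglm shrinkage.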

| Sequence | shrunken log2 fold change |
| --- | --- |
| RRIRGRPPRLPRPRPRPPDVPRP | 0.0671 |
| RRIRTRPPRLPRPRPRPVICPRP | -0.157 |
| RRIRNRPPRLPRPRPRPTVFPRP | 0.0462 |
| RRIRVRPPRLPRPRPRPNCAPRP | 0.289 |
| RRIRLRPPRLPRPRPRPWFWPRP | -0.0455 |
| RRIRCRPPRLPRPRPRPCGVPRP | 0.0257 |
| RRIRIRPPRLPRPRPRPDMWPRP | -0.271 |
| RRIRKRPPRLPRPRPRPGPKPRP | 1.15 |
| RRIRKRPPRLPRPRPRPCHFPRP | -0.0404 |
| RRIRGRPPRLPRPRPRPDFDPRP | 0.612 |
| RRIRCRPPRLPRPRPRPWKAPRP | 0.0231 |
| RRIRVRPPRLPRPRPRPTGWPRP | 0.377 |
| RRIRPRPPRLPRPRPRPYWVPRP | -0.284 |
| RRIRWRPPRLPRPRPRPSQNPRP | 0.236 |
| RRIRTRPPRLPRPRPRPENGPRP | 0.0885 |
| RRIRTRPPRLPRPRPRPTALPRP | 0.0207 |
| RRIRFRPPRLPRPRPRPSHGPRP | -0.391 |
| RRIRQRPPRLPRPRPRPDLIPRP | 0.0281 |
| RRIRIRPPRLPRPRPRPSFHPRP | -1.13 |
| RRIRMRPPRLPRPRPRPVKHPRP | 0.0894 |
| RRIRLRPPRLPRPRPRPYCYPRP | -0.238 |
| RRIRVRPPRLPRPRPRPANVPRP | -0.597 |
| RRIRKRPPRLPRPRPRPASIPRP | 0.0215 |
| RRIRFRPPRLPRPRPRPTHMPRP | 0.0264 |
| RRIRMRPPRLPRPRPRPPTFPRP | 0.122 |

| Sequence | shrunken log2 fold change |
| --- | --- |
| RRIRIRPPRLPRPRPRPGTDPRP | -0.114 |
| RRIRPRPPRLPRPRPRPLFMPRP | -0.38 |
| RRIRFRPPRLPRPRPRPDNTPRP | -0.491 |
| RRIRIRPPRLPRPRPRPYNCPRP | -0.411 |
| RRIRVRPPRLPRPRPRPPDLPRP | 0.195 |
| RRIRCRPPRLPRPRPRPRAPPRP | 0.87 |
| RRIRGRPPRLPRPRPRPSRHPRP | 0.0789 |
| RRIRCRPPRLPRPRPRPMLTPRP | -0.0319 |
| RRIRNRPPRLPRPRPRPDPTPRP | 0.0817 |
| RRIRARPPRLPRPRPRPTHVPRP | 0.813 |
| RRIRIRPPRLPRPRPRPEYPPRP | -1.05 |
| RRIRKRPPRLPRPRPRPWHNPRP | -0.124 |
| RRIRQRPPRLPRPRPRPCFGPRP | 0.0162 |
| RRIRPRPPRLPRPRPRPRYPPRP | 0.202 |
| RRIRRRPPRLPRPRPRPHQLPRP | -0.225 |
| RRIRMRPPRLPRPRPRPWQAPRP | 0.00735 |
| RRIRLRPPRLPRPRPRPHWEPRP | 0.0215 |
| RRIRLRPPRLPRPRPRPCQLPRP | -0.8 |
| RRIRKRPPRLPRPRPRPQWHPRP | 0.104 |
| RRIRVRPPRLPRPRPRPYRWPRP | -0.355 |
| RRIRIRPPRLPRPRPRPSCRPRP | -0.644 |
| RRIRCRPPRLPRPRPRPSWYPRP | -0.675 |
| RRIRHRPPRLPRPRPRPNTGPRP | 0.121 |
| RRIRARPPRLPRPRPRPDWEPRP | 0.334 |
| RRIRERPPRLPRPRPRPNPMPRP | -0.211 |

| Sequence | shrunken log2 fold change |
| --- | --- |
| RRIRYRPPRLPRPRPRPPIFPRP | -0.381 |
| RRIRPRPPRLPRPRPRPAAMPRP | 0.302 |
| RRIRMRPPRLPRPRPRPYGSPRP | -0.0489 |
| RRIRNRPPRLPRPRPRPAFQPRP | -0.0462 |
| RRIRWRPPRLPRPRPRPTQTPRP | 0.551 |
| RRIRWRPPRLPRPRPRPRFIPRP | -0.00733 |
| RRIRCRPPRLPRPRPRPKELPRP | -0.000896 |
| RRIRCRPPRLPRPRPRPGWFPRP | 0.0546 |
| RRIRYRPPRLPRPRPRPPHWPRP | 0.203 |
| RRIRQRPPRLPRPRPRPRWDPRP | 0.29 |
| RRIRERPPRLPRPRPRPTGQPRP | -0.0359 |
| RRIRKRPPRLPRPRPRPRIIPRP | 0.081 |
| RRIRRRPPRLPRPRPRPIRWPRP | 0.0197 |
| RRIRSRPPRLPRPRPRPHTPPRP | -0.318 |
| RRIRSRPPRLPRPRPRPPMPPRP | 0.486 |
| RRIRIRPPRLPRPRPRPHFGPRP | -0.00693 |
| RRIRIRPPRLPRPRPRPYRQPRP | -0.326 |
| RRIRVRPPRLPRPRPRPIATPRP | 0.141 |
| RRIRLRPPRLPRPRPRPNKNPRP | -0.366 |
| RRIRNRPPRLPRPRPRPVCAPRP | 0.559 |
| RRIRVRPPRLPRPRPRPIPVPRP | -0.363 |
| RRIRDRPPRLPRPRPRPQHAPRP | 0.044 |
| RRIRARPPRLPRPRPRPEAAPRP | 1.78 |
| RRIRDRPPRLPRPRPRPKDYPRP | -0.192 |
| RRIRLRPPRLPRPRPRPCEDPRP | 0.00976 |
